Experimental data as given in the DeepSol protein solubility set.

Experiment: soluble on expression in E. coli; label from the status in PepcDB or PDB records

Sequence | soluble on expression in E. coli
MASQPNSSAKKKEEKGKNIQVVVRCRPFNLAERKASAHSIVECDPVRKEVSVRTGGLADKSSRKTYTFDMVFGASTKQIDVYRSVVCPILDEVIMGYNCTIFAYGQTGTGKTFTMEGERSPNEEYTWEEDPLAGIIPRTLHQIFEKLTDNGTEFSVKVSLLEIYNEELFDLLNPSSDVSERLQMFDDPRNKRGVIIKGLEEITVHNKDEVYQILEKGAAKRTTAATLMNAYSSRSHSVFSVTIHMKETTIDGEELVKIGKLNLVDLAGSENIGRSGAVDKRAREAGNINQSLLTLGRVITALVERTPHVPYRESKLTRILQDSLGGRTRTSIIATISPASLNLEETLSTLEYAHRAKNILNKPEVNQKL | soluble
MASQQQTVREWSGINTFAPATQTKLLELLGNLKQEDVNSLTILVMGKGGVGKSSTVNSIIGERVVSISPFQSEGPRPVMVSRSRAGFTLNIIDTPGLIEGGYINDMALNIIKSFLLDKTIDVLLYVDRLDAYRVDNLDKLVAKAITDSFGKGIWNKAIVALTHAQFSPPDGLPYDEFFSKRSEALLQVVRSGASLKKDAQASDIPVVLIENSGRCNKNDSDEKVLPNGIAWIPHLVQTITEVALNKSESIFVDKNLIDKLAAADHHHHHH | soluble
MASRRSNAKSRDKPDKYSVLLPTYNERENLPLIVWLLVKYFGESGYNYEIIVIDDGSPDGTLQIAEQLQKIYGADKILLRPRAEKLGLGTAYIHGIKHATGNFVIIMDADLSHHPKFIPQFIEKQKEGGYDLVSGTRYRGDGGVYGWDLRRKLISRGANFVTQVLLRPGASDLTGSFRLYKKEVLEKLVEQCVSKGYVFQMEMIVRARQLGYTIGEVPISFVDRVYGESKLGGNEIVSFLKGLLTLFATT | not soluble
MASSASDGTHERSAFRLSPPVLSGAMGPFMHTGLYVAQSWRDYLGQQPDKLPIARPTIALAAQAFRDEIVLLGLKARRPVSNHRVFERISQEVAAGLEFYGNRRWLEKPSGFFAQPPPLTEVAVRKVKDRRRSFYRIFFDSGFTPHPGEPGSQRWLSYTANNREYALLLRHPEPRPWLVCVHGTEMGRAPLDLAVFRAWKLHDELGLNIVMPVLPMHGPRGQGLPKGAVFPGEDVLDDVHGTAQAVWDIRRLLSWIRSQEEESLIGLNGLSLGGYIASLVASLEEGLACAILGVPVADLIELLGRHCGLRHKDPRRHTVKMAEPIGRMISPLSLTPLVPMPGRFIYAGIADRLVHPREQVTRLWEHWGKPEIVWYPGGHTGFFQSRPVRRFVQAALEQSGLLDAPRTQRDRSA | not soluble
MASTQCVNIQKRDIIRGASDVSWFDVLLEKGACVTISAQDKPSVDLWLDDVIQESLIEGRHYCTKASTSDLKADARCPTQGEATMREEYLDGYVCKRSFSDRGWGNGCGLFGKGSIVGCAKATCGANDIIKSYSYDSPKVKYVIGAEVHQGKLLTNNSTDRIVKTTFTAESEKHTITIADYGSMDFTCRVVASAELSNIRMIELDGHMFNVHEDWLSDLPLPSKISGGSWHGMDRLVVFKEPHAVKMEIQACGDQRPAVFKSLVKAEEVTKTSNSYHLTGGHVDCRVSTLNLRMKGLTYQMCSSSFVWHKRPVATQHGTVAMEVKYKGSDAPCRIPVSVEKEGYNGKNFGNLITANPFAANNEAVVFLELEAPLGVSTIKVGGAVFQWKQEGSSIGKALEHHHHHH | not soluble
MASYSSILVLSVCTIGALAVMEHNSYYPGGHSTSYYQPFQTDTYGSKYYNTESYGKYDEHGNNGKDSHYEPNYYNPIASYYHSYMPKYHGGHNDYYTKYNQYTPYYGGSHQQNYYEQPKHDDYHGGDHHYDMHK | not soluble
MATAADSVYSIESPKAAKSLMLDVVHAGKRLVAVGDRGHILYSDDQGQTWVQAKVPTRQLLTAVYFVDDKRGWAVGHDAQVLASSDGGATWTRQFQDLKREAPLLDVWFKDTQTGYAVGAYGALLETSDGGQHWEDVSDRLDNEDQFHLNAIAQVKDSGLFIVGEQGSMFRSADDGQTWERLEGPYEGSLFGVIGTGQPATLLVYGLRGNLYRSTDFGSTWEQVELNAARGALEFGLSGATLLDDGSLVIVGNGGSVIRSTDHGQTFSVFNRADRISLSAVTAAGNGDLILAGQGGVRVSAATGAELGQLEHHHHHH | not soluble
